Results published in patent publication US20150246959A1 (US Dept. of Health and Human Services, published 2015).
Numbering of substitutions follows the chain as printed. Names may count otherwise.

Tests used:
Assay in all cases: cell-based or functional assay
[1] = target: MAGE-A4/A9: 249-259 peptide presented by HLA-DP*0401 on 293-CIITA cells (human, UniProt P20036 29-260)
[2] = target: MAGE-A3: 243-253 peptide presented by HLA-DP*0401 on 293-CIITA cells (human, UniProt P20036 29-260)
[3] = target: MAGE-A8: 251-261 peptide presented by HLA-DP*0401 on 293-CIITA cells (human, UniProt P20036 29-260)
[4] = target: MAGE-A3: 243-255 peptide presented by HLA-DP*0401 on 293-CIITA cells (human, UniProt P20036 29-260)
[5] = target: MAGE-A3: 243-258 peptide presented by HLA-DP*0401 on 293-CIITA cells (human, UniProt P20036 29-260)
[6] = target: MAGE-B2: 250-260 peptide presented by HLA-DP*0401 on 293-CIITA cells (human, UniProt P20036 29-260)
[7] = target: MAGE-A3: 246-258 peptide presented by HLA-DP*0401 on 293-CIITA cells (human, UniProt P20036 29-260)
[8] = target: MAGE-A3: 249-258 peptide presented by HLA-DP*0401 on 293-CIITA cells (human, UniProt P20036 29-260)
[9] = target: MAGE-C1: 113-123 peptide presented by HLA-DP*0401 on 293-CIITA cells (human, UniProt P20036 29-260)
[10] = target: MAGE-B10: 250-260 peptide presented by HLA-DP*0401 on 293-CIITA cells (human, UniProt P20036 29-260)
[11] = target: MAGE-A6: 248-258 peptide presented by HLA-DP*0401 on 293-CIITA cells (human, UniProt P20036 29-260)
[12] = target: MAGE-D4: 300-315 peptide presented by HLA-DP*0401 on 293-CIITA cells (human, UniProt P20036 29-260)
[13] = target: MAGE-A3: 247-258 peptide presented by HLA-DP*0401 on 293-CIITA cells (human, UniProt P20036 29-260)
[14] = target: MAGE-A3: 248-258 peptide presented by HLA-DP*0401 on 293-CIITA cells (human, UniProt P20036 29-260)
[15] = target: MAGE-A1/B4: 241-251 peptide presented by HLA-DP*0401 on 293-CIITA cells (human, UniProt P20036 29-260)
[16] = target: MAGE-A2/A12: 248-258 peptide presented by HLA-DP*0401 on 293-CIITA cells (human, UniProt P20036 29-260)
[17] = target: MAGE-A3: 243-254 peptide presented by HLA-DP*0401 on 293-CIITA cells (human, UniProt P20036 29-260)
[18] = target: Necdin: 237-247 peptide presented by HLA-DP*0401 on 293-CIITA cells (human, UniProt P20036 29-260)
[19] = target: MAGE-L2: 582-597 peptide presented by HLA-DP*0401 on 293-CIITA cells (human, UniProt P20036 29-260)
[20] = target: MAGE-A3: 245-258 peptide presented by HLA-DP*0401 on 293-CIITA cells (human, UniProt P20036 29-260)
[21] = target: MAGE-B16: 252-262 peptide presented by HLA-DP*0401 on 293-CIITA cells (human, UniProt P20036 29-260)
[22] = target: MAGE-G1: 220-235 peptide presented by HLA-DP*0401 on 293-CIITA cells (human, UniProt P20036 29-260)
[23] = target: MAGE-A3: 243-256 peptide presented by HLA-DP*0401 on 293-CIITA cells (human, UniProt P20036 29-260)
[24] = target: MAGE-D2: 413-428 peptide presented by HLA-DP*0401 on 293-CIITA cells (human, UniProt P20036 29-260)
[25] = target: MAGE-A3 full-length protein processed and presented by HLA-DP4 on cells (human)
Chain of MAGE-A3 full-length protein processed and presented by HLA-DP4 on cells (human) (P20036 29-260, chain 1 of 2): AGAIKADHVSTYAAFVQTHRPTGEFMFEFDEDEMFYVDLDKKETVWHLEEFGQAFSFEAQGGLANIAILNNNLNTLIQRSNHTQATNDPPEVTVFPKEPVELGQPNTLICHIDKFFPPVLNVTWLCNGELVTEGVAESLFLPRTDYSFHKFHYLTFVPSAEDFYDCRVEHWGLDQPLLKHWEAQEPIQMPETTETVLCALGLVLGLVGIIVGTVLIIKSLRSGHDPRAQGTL
Chain of MAGE-A3 full-length protein processed and presented by HLA-DP4 on cells (human) (P43357 whole entry, chain 2 of 2, further chain): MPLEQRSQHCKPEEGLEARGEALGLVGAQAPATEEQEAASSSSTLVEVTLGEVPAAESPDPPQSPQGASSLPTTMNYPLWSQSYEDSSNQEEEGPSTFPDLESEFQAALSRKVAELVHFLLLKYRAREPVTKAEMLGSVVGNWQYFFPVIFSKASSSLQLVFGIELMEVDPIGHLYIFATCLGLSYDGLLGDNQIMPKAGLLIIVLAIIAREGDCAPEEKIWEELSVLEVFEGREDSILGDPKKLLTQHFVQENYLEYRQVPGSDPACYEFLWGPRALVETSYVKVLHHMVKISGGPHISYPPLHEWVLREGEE

B1: 6F9 TCR (TCR)
TCR alpha: QTVTQSQPEMSVQEAETVTLSCTYDTSESDYYLFWYKQPPSRQMILVIRQEAYKQQNATENRFSVNFQKAAKSFSLKISDSQLGDAAMYFCALRSSGTYKYIFGTGTRLKVLANIQNPDPAVYQLRDSKSSDKSVCLFTDFDSQTNVSQSKDSDVYITDKTVLDMRSMDFKSNSAVAWSNKSDFACANAFNNSIIPEDTFFPSPESSCDVKLVEKSFETDTNLNFQNLSVIGFRILLLKVAGFNLLMTLRLWSS
TCR beta: GAGVSQSPSNKVTEKGKDVELRCDPISGHTALYWYRQSLGQGLEFLIYFQGNSAPDKSGLPSDRFSAERTGGSVSTLTIQRTQQEDSAVYLCASIRTGPFFSGNTIYFGEGSWLTVVEDLNKVFPPEVAVFEPSEAEISHTQKATLVCLATGFFPDHVELSWWVNGKEVHSGVSTDPQPLKEQPALNDSRYCLSSRLRVSATFWQNPRNHFRCQVQFYGLSENDEWTQDRAKPVTQIVSAEAWGRADCGFTSVSYQQGVLSATILYEILLGKATLYAVLVSALVLMAMVKRKDF
[1]
  IFN-g (pg/ml); CD4+ T cells of PBMC-1; 293-CIITA pulsed with peptide: 0 pg/mL
  IFN-g (pg/ml); CD4+ T cells of PBMC-2; 293-CIITA pulsed with peptide: 22 pg/mL
[2]
  IFN-g (pg/ml); CD4+ T cells of PBMC-1; 293-CIITA pulsed with peptide: 0 pg/mL
  IFN-g (pg/ml); CD4+ T cells of PBMC-2; 293-CIITA pulsed with peptide: 30 pg/mL
[3]
  IFN-g (pg/ml); CD4+ T cells of PBMC-1; 293-CIITA pulsed with peptide: 43 pg/mL
  IFN-g (pg/ml); CD4+ T cells of PBMC-2; 293-CIITA pulsed with peptide: 39 pg/mL
[4]
  IFN-g (pg/ml); CD4+ T cells of PBMC-1; 293-CIITA pulsed with peptide: 76 pg/mL
  IFN-g (pg/ml); CD4+ T cells of PBMC-2; 293-CIITA pulsed with peptide: 111 pg/mL
[5]
  IFN-g (pg/ml); CD4+ T cells of PBMC-1; 293-CIITA pulsed with peptide: 10200 pg/mL
  IFN-g (pg/ml); CD4+ T cells of PBMC-2; 293-CIITA pulsed with peptide: 10400 pg/mL
[6]
  IFN-g (pg/ml); CD4+ T cells of PBMC-1; 293-CIITA pulsed with peptide: 0 pg/mL
  IFN-g (pg/ml); CD4+ T cells of PBMC-2; 293-CIITA pulsed with peptide: 7 pg/mL
[7]
  IFN-g (pg/ml); CD4+ T cells of PBMC-1; 293-CIITA pulsed with peptide: 7140 pg/mL
  IFN-g (pg/ml); CD4+ T cells of PBMC-2; 293-CIITA pulsed with peptide: 9200 pg/mL
[8]
  IFN-g (pg/ml); CD4+ T cells of PBMC-1; 293-CIITA pulsed with peptide: 669 pg/mL
  IFN-g (pg/ml); CD4+ T cells of PBMC-2; 293-CIITA pulsed with peptide: 922 pg/mL
[9]
  IFN-g (pg/ml); CD4+ T cells of PBMC-1; 293-CIITA pulsed with peptide: 9 pg/mL
  IFN-g (pg/ml); CD4+ T cells of PBMC-2; 293-CIITA pulsed with peptide: 25 pg/mL
[10]
  IFN-g (pg/ml); CD4+ T cells of PBMC-1; 293-CIITA pulsed with peptide: 22 pg/mL
  IFN-g (pg/ml); CD4+ T cells of PBMC-2; 293-CIITA pulsed with peptide: 28 pg/mL
[11]
  IFN-g (pg/ml); CD4+ T cells of PBMC-1; 293-CIITA pulsed with peptide: 6440 pg/mL
  IFN-g (pg/ml); CD4+ T cells of PBMC-2; 293-CIITA pulsed with peptide: 13200 pg/mL
[12]
  IFN-g (pg/ml); CD4+ T cells of PBMC-1; 293-CIITA pulsed with peptide: 193 pg/mL
  IFN-g (pg/ml); CD4+ T cells of PBMC-2; 293-CIITA pulsed with peptide: 194 pg/mL
[13]
  IFN-g (pg/ml); CD4+ T cells of PBMC-1; 293-CIITA pulsed with peptide: 6710 pg/mL
  IFN-g (pg/ml); CD4+ T cells of PBMC-2; 293-CIITA pulsed with peptide: 6810 pg/mL
[14]
  IFN-g (pg/ml); CD4+ T cells of PBMC-1; 293-CIITA pulsed with peptide: 6220 pg/mL
  IFN-g (pg/ml); CD4+ T cells of PBMC-2; 293-CIITA pulsed with peptide: 7400 pg/mL
[15]
  IFN-g (pg/ml); CD4+ T cells of PBMC-1; 293-CIITA pulsed with peptide: 129 pg/mL
  IFN-g (pg/ml); CD4+ T cells of PBMC-2; 293-CIITA pulsed with peptide: 108 pg/mL
[16]
  IFN-g (pg/ml); CD4+ T cells of PBMC-1; 293-CIITA pulsed with peptide: 33 pg/mL
  IFN-g (pg/ml); CD4+ T cells of PBMC-2; 293-CIITA pulsed with peptide: 37 pg/mL
[17]
  IFN-g (pg/ml); CD4+ T cells of PBMC-1; 293-CIITA pulsed with peptide: 28 pg/mL
  IFN-g (pg/ml); CD4+ T cells of PBMC-2; 293-CIITA pulsed with peptide: 30 pg/mL
[18]
  IFN-g (pg/ml); CD4+ T cells of PBMC-1; 293-CIITA pulsed with peptide: 0 pg/mL
  IFN-g (pg/ml); CD4+ T cells of PBMC-2; 293-CIITA pulsed with peptide: 21 pg/mL
[19]
  IFN-g (pg/ml); CD4+ T cells of PBMC-1; 293-CIITA pulsed with peptide: 45 pg/mL
  IFN-g (pg/ml); CD4+ T cells of PBMC-2; 293-CIITA pulsed with peptide: 78 pg/mL
[20]
  IFN-g (pg/ml); CD4+ T cells of PBMC-1; 293-CIITA pulsed with peptide: 9290 pg/mL
  IFN-g (pg/ml); CD4+ T cells of PBMC-2; 293-CIITA pulsed with peptide: 8920 pg/mL
[21]
  IFN-g (pg/ml); CD4+ T cells of PBMC-1; 293-CIITA pulsed with peptide: 0 pg/mL
  IFN-g (pg/ml); CD4+ T cells of PBMC-2; 293-CIITA pulsed with peptide: 11 pg/mL
[22]
  IFN-g (pg/ml); CD4+ T cells of PBMC-1; 293-CIITA pulsed with peptide: 0 pg/mL
  IFN-g (pg/ml); CD4+ T cells of PBMC-2; 293-CIITA pulsed with peptide: 25 pg/mL
[23]
  IFN-g (pg/ml); CD4+ T cells of PBMC-1; 293-CIITA pulsed with peptide: 1020 pg/mL
  IFN-g (pg/ml); CD4+ T cells of PBMC-2; 293-CIITA pulsed with peptide: 1670 pg/mL
[24]
  IFN-g (pg/ml); CD4+ T cells of PBMC-1; 293-CIITA pulsed with peptide: 82 pg/mL
  IFN-g (pg/ml); CD4+ T cells of PBMC-2; 293-CIITA pulsed with peptide: 226 pg/mL

B2: a1 substituted 6F9 TCR (alpha chain S116A) (TCR, V domains shown)
V domain 1: QTVTQSQPEMSVQEAETVTLSCTYDTSESDYYLFWYKQPPSRQMILVIRQEAYKQQNATENRFSVNFQKAAKSFSLKISDSQLGDAAMYFCALRASGTYKYIFGTGTRLKVLA
V domain 2: GAGVSQSPSNKVTEKGKDVELRCDPISGHTALYWYRQSLGQGLEFLIYFQGNSAPDKSGLPSDRFSAERTGGSVSTLTIQRTQQEDSAVYLCASIRTGPFFSGNTIYFGEGSWLTVVE
[25]
  fold increase in anti-tumor activity (IFN-gamma) against wt 6F9 TCR, CD4+ enriched PBL: ~2 fold

B3: a2 substituted 6F9 TCR (alpha chain S117A) (TCR, V domains shown)
V domain 1: B2 V domain 1 with A95S, S96A
V domain 2: B2 V domain 2
[25]
  fold increase in anti-tumor activity (IFN-gamma) against wt 6F9 TCR, CD4+ enriched PBL: ~2 fold
